# B1: 纳米抗体SA4 (VHH)
# VHH: QVQLQESGGGLVQPGGSLRLSCAASGSFFEFGTVGWFRQAPGKQRELVSRITGNDHRYYADSVKGRFTISRDNDETTVYLQMDSLKPEDTAIYHCNILEGQRWSNYWGQGTQVTVSH
# Molecular target: SARS-CoV-2假病毒 (病毒包膜糖蛋白 on MLV pseudovirus) (SARS-CoV-2, UniProt P0DTC2 14-1273)
# Experiment: cell-based or functional assay
binder,measurement,value
B1,"假病毒中和实验 IC50 (GFP by flow cytometry, VeroE6-hACE2 cells)",12.7 nM

# Reference: CN115594758A (NANJING JINGZHUN BIOTECHNOLOGY CO LTD, dated 2023)
